US20240287172A1 (SCIRHOM, published 2024)
Where a chain is given by its changes, count along the chain named.

Columns and labels:
hiR2-FL-G546A-T7 = molecular target: T1, hiR2-FL-G546A-T7 (human, UniProt Q6PJF5 1-856); test: FACS on MEF-DKO cells
T1 sequence: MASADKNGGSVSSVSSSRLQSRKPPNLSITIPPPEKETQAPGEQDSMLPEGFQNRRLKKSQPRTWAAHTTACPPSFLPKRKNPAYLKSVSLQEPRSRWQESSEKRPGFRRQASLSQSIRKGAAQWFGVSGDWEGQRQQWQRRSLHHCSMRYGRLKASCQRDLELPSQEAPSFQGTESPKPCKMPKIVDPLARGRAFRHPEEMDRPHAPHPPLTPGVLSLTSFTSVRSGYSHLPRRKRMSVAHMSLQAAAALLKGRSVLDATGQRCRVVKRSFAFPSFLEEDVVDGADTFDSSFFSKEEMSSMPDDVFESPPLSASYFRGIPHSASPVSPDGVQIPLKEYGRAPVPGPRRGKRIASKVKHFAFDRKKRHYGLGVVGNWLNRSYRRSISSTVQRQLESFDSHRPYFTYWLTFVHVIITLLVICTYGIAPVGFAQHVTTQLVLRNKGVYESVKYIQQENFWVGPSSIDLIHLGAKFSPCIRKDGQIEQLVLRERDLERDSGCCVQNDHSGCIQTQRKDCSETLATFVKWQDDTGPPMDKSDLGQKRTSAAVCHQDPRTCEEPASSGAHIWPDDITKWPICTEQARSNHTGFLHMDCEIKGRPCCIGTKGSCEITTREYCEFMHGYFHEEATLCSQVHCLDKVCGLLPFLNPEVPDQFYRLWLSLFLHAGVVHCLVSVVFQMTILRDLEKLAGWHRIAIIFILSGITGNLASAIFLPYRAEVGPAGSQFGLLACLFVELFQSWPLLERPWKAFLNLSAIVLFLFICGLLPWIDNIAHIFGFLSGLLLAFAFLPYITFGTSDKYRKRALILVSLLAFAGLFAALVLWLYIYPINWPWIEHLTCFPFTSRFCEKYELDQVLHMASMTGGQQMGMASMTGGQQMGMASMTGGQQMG

hiR2-FL-H505R-T7 = molecular target: T2, hiR2-FL-H505R-T7 (human, UniProt Q6PJF5 1-856); test: FACS on MEF-DKO cells
T2 sequence: T1 sequence with H505R, A546G

B1: antibody 5 (antibody, V domains shown)
VH: QVTLKESGPGILQPSQTLSLTCSFSGFSLSTFGMGVGWIRQPSGKGLEWLAHIWWDDEKYYNSALKSRLTISKATSKNQAFLKIANVDTADTATYYCARISNYGSNYWYFNVWGTGTTVTVSS
VL: QVVLTQSPALMSASPGEKVTMTCSAGSSVSCMYWYQQKPGSSPRVLIYDTSNLASGVPARFTGSGSGTSYSLTISRMEAEDAASYYCQQWNSYPLTFGAGTKLELK
notes: mouse IgG, kappa light chain; also called clone #5; purified antibody 5
binding result (hiR2-FL-G546A-T7): no binding (tested: 3 µg/ml)

B2: antibody 50 (antibody, V domains shown)
VH: QVQLQQSGAELVRPGASVKVSCKASGYAFSNYLIEWVKQRPGQGLEWIGVINPGSGFTKYNEKFKGKATLTADKSSSTAYMQLSSLTSEDSAVYFCARGLYRAMDYWGQGTSVTVSS
VL: DIQMTQSPASQSASLGESVTITCLASQTIGTWLAWYQQKPGKSPQLLIYAAASLADGVPSRFSGGGSGTKFSFKISSLQAEDFVNYYCQQIYSTPYTFGGGTKLEIK
notes: mouse IgG, kappa light chain; also called clone #50; purified antibody 50
binding result (hiR2-FL-H505R-T7): no binding (tested: 3 µg/ml)
